Results published in publication PMC3509132, “Global Epigenetic Changes Induced by SWI2/SNF2 Inhibitors Characterize Neomycin-Resistant Mammalian Cells” (PLoS ONE, 2012).

Columns and labels:
Assay in all cases: intrinsic tryptophan fluorescence quenching
MAD53 = target: T1, MAD53 (UniProt Q9TTA5); conditions: Fluorescence at 25 C (Cary-Varian spectrofluorimeter); buffer, salt and pH not given (as in ref 13)
T1 sequence (Q9TTA5 whole entry, looked up): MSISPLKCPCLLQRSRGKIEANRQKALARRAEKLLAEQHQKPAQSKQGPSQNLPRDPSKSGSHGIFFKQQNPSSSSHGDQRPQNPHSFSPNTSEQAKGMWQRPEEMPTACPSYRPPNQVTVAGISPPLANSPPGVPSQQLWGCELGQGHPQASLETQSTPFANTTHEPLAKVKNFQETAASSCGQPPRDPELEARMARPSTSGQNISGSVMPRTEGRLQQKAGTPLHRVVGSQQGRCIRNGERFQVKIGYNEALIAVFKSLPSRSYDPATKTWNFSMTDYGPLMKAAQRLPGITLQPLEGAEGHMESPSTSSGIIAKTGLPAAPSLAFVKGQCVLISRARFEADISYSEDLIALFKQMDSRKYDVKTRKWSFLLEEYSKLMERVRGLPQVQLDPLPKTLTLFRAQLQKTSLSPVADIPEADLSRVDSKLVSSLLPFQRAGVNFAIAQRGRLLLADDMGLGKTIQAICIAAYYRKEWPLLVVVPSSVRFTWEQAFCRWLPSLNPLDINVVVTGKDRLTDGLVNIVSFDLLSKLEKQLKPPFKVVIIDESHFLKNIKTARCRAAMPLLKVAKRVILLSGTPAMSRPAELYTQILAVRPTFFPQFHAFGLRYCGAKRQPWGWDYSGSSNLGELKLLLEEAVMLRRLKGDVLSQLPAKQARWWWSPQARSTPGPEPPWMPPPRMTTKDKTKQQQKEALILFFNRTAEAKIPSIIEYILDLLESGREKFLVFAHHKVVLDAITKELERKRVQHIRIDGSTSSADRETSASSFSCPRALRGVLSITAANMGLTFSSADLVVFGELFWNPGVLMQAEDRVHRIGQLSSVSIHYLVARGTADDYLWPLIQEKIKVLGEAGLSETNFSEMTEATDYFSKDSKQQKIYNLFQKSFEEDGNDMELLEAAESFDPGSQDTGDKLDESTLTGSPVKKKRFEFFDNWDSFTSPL

MAD28 = target: T2, MAD28 (UniProt Q9TTA5); conditions: Fluorescence at 25 C (Cary-Varian spectrofluorimeter); buffer, salt and pH not given (as in ref 13)
T2 sequence (Q9TTA5 whole entry, looked up): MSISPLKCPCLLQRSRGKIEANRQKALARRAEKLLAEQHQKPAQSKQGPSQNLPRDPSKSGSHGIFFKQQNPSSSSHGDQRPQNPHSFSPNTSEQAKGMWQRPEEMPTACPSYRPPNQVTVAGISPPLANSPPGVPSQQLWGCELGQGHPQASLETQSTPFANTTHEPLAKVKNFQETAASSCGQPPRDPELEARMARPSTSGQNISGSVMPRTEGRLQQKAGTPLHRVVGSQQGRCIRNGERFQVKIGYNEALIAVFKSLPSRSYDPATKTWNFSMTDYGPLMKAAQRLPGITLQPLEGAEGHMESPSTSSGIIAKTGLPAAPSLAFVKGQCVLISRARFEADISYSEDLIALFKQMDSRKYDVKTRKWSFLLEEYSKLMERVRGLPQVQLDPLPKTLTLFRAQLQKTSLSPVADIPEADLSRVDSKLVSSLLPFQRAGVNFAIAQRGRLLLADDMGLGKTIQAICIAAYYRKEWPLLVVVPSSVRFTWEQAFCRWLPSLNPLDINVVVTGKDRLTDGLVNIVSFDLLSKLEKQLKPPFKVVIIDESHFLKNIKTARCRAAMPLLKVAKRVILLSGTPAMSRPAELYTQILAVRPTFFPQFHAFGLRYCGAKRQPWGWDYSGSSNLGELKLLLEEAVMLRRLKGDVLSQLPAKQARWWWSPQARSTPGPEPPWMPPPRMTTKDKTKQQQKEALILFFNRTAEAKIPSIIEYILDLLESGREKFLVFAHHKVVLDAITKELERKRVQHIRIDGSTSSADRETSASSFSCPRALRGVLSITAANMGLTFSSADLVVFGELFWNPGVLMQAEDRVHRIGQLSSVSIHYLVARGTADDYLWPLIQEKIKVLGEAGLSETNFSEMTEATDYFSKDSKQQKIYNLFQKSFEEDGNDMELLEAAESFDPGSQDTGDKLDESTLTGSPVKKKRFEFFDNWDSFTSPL

MAD8 = target: T3, MAD8 (UniProt Q9TTA5); conditions: Fluorescence at 25 C (Cary-Varian spectrofluorimeter); buffer, salt and pH not given (as in ref 13)
T3 sequence (Q9TTA5 whole entry, looked up): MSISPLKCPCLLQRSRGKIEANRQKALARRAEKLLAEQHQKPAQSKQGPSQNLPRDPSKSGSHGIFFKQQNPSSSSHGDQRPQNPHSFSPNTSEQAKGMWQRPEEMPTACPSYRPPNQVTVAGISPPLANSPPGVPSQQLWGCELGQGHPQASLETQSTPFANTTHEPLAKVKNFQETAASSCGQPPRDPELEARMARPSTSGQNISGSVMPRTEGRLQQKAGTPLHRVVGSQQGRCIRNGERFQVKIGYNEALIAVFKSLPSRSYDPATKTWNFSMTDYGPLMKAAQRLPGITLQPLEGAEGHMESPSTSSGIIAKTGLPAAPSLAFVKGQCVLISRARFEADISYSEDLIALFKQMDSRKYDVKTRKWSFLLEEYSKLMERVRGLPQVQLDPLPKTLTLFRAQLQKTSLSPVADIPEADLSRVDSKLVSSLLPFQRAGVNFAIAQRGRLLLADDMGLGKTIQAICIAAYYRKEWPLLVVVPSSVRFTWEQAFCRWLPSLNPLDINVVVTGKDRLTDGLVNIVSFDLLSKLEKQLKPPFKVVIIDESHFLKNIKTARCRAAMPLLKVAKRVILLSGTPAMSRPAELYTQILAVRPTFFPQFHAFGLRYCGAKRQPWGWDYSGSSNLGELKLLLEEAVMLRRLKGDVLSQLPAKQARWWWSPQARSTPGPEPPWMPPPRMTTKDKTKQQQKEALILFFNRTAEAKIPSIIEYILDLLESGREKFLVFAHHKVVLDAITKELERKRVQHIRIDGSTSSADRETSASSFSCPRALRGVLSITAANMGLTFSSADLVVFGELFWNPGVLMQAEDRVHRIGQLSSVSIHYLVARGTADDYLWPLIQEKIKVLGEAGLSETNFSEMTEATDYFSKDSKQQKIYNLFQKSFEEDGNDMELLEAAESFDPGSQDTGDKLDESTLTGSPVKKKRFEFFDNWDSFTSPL

MAD33 = target: T4, MAD33 (UniProt Q9TTA5); conditions: Fluorescence at 25 C (Cary-Varian spectrofluorimeter); buffer, salt and pH not given (as in ref 13)
T4 sequence (Q9TTA5 whole entry, looked up): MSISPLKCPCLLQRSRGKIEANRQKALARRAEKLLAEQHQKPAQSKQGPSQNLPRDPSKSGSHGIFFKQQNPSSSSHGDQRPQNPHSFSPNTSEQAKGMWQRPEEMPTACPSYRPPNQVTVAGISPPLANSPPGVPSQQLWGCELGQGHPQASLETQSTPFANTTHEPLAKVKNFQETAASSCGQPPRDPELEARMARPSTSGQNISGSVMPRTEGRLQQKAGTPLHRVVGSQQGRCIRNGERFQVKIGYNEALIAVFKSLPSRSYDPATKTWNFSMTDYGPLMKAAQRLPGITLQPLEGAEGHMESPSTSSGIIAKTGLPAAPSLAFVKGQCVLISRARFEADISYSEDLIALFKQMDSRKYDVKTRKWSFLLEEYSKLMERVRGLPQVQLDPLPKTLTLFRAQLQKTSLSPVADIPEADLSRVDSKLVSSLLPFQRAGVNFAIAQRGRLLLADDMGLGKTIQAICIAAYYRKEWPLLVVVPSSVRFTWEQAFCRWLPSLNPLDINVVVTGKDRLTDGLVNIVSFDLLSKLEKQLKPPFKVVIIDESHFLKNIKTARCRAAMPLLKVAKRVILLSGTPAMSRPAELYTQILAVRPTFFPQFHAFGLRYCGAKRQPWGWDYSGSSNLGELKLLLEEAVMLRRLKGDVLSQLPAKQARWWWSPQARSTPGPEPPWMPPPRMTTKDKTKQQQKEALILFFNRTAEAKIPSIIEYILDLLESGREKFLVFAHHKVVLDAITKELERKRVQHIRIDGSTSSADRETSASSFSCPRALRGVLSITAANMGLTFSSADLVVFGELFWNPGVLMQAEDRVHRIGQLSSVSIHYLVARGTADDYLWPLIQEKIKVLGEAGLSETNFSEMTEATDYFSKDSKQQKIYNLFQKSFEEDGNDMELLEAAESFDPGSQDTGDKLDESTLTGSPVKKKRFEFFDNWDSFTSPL

MAD47 = target: T5, MAD47 (UniProt Q9TTA5); conditions: Fluorescence at 25 C (Cary-Varian spectrofluorimeter); buffer, salt and pH not given (as in ref 13)
T5 sequence (Q9TTA5 whole entry, looked up): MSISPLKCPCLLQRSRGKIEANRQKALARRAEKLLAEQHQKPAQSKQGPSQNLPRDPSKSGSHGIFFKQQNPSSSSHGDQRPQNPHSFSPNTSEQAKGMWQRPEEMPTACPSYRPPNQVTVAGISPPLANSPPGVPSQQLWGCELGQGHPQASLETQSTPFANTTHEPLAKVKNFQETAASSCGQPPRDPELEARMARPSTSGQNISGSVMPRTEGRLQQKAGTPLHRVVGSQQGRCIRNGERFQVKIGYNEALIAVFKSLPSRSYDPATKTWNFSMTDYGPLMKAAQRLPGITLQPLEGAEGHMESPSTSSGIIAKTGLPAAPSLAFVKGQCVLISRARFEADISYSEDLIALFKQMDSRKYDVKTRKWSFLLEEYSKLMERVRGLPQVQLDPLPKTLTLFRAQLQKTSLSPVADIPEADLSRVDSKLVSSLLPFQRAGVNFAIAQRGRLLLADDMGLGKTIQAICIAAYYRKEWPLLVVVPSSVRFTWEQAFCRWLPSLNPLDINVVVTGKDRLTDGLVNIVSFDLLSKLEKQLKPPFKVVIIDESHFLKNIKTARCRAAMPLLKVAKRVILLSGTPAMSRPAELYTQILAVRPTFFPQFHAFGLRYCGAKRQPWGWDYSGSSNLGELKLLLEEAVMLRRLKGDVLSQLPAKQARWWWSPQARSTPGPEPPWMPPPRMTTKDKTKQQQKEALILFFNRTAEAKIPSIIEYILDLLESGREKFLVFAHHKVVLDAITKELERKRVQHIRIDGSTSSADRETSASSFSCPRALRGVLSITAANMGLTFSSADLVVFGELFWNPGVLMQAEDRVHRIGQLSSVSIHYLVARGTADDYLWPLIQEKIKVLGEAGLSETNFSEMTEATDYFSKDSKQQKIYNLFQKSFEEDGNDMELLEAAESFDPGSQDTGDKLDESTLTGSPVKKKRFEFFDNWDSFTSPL

[1] = target: T6, His-ADAAD (Active DNA-dependent ATPase A Domain) (UniProt Q9TTA5); conditions: Fluorescence at 25 C (Cary-Varian spectrofluorimeter), buffer, salt and pH not given (as in ref 13)
T6 sequence (Q9TTA5 whole entry, looked up): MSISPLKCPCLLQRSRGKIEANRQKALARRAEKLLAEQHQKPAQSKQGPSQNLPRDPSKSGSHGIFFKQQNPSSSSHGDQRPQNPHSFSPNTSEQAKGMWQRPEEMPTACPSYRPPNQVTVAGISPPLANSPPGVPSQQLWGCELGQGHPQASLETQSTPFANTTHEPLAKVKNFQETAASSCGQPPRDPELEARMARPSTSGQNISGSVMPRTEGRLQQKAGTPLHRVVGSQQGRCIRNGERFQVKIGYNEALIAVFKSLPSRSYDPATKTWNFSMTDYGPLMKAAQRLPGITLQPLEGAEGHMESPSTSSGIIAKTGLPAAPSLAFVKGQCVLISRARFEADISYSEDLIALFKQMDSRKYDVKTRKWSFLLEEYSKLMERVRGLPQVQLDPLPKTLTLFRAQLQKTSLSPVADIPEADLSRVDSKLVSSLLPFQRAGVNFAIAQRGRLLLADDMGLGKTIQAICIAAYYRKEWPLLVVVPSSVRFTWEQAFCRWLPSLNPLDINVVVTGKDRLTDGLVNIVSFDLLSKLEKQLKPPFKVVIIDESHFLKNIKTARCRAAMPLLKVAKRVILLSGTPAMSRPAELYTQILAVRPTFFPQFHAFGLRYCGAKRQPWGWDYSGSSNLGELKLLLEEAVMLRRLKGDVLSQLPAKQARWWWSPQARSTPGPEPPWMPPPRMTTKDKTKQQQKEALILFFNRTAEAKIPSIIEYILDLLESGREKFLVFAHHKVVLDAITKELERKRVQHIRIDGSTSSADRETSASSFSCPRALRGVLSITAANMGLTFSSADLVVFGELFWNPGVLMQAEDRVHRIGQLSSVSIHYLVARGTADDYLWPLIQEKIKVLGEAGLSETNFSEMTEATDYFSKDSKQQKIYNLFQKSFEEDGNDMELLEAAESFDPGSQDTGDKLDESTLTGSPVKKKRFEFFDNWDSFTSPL

What does the source list for “GCGCAATTGCGCTCGACGATTTTTTAGCGCAATTGCGC [slDNA (stem-loop DNA)]”?
Kd (MAD53): 8.2 nM; Kd (MAD28): 22.1 nM; Kd (MAD8): 8.7 nM; Kd (MAD33): 41.5 nM; Kd (MAD47): 6.5 nM; Kd ([1]; 2 uM ADAADiK): 0.46 nM; Kd ([1]; 2 uM ADAADiN (saturating inhibitor)): 0.63 nM
